Results as given in patent US20240116985A1 (published 2024).
Starred links: 1 amine or outer side, 2 acyl side, 3 side chain; linkers in the order of their positions; H or OH if unused. Positions of bridges follow the written chain, without caps; N, C: chain ends. Non-standard residues stand in square brackets, D forms with d. Primed or numbered codes have the meaning given here. B5(10) = 2-amino-2-(pent-4-en-1-yl)hept-6-enoic acid, bis(4-pentenyl)glycine, stitching residue bearing both staples, C=CCCCC(CCCC=C)(N[*:1])C(=O)[*:2]; B5(5) = 2,2-bis(4-pentenyl)glycine, 2-amino-2-(pent-4-en-1-yl)hept-6-enoic acid (stitching residue), C=CCCCC(CCCC=C)(N[*:1])C(=O)[*:2]; B5(21) = 2-amino-2-(pent-4-en-1-yl)hept-6-enoic acid, bis(4-pentenyl)glycine (stitching residue), C=CCCCC(CCCC=C)(N[*:1])C(=O)[*:2]; PyrS2 = (S)-3-amino-1-((pent-4-en-1-yloxy)carbonyl)pyrrolidine-3-carboxylic acid, C=CCCCOC(=O)N1CC[C@@](N[*:1])(C(=O)[*:2])C1; Bta = N[C@@H](Cc1csc2ccccc12)C(=O)O; αAllylPro = C=CC[C@@]1(C(=O)O)CCCN1; S8 = C=CCCCCCC[C@](C)(N)C(=O)O

T1: full-length beta-Catenin (Uniprot ID P35222) (Homo sapiens (Human), UniProt P35222 1-781)
T1 construct: also called bCat; B-Catenin
T1 sequence: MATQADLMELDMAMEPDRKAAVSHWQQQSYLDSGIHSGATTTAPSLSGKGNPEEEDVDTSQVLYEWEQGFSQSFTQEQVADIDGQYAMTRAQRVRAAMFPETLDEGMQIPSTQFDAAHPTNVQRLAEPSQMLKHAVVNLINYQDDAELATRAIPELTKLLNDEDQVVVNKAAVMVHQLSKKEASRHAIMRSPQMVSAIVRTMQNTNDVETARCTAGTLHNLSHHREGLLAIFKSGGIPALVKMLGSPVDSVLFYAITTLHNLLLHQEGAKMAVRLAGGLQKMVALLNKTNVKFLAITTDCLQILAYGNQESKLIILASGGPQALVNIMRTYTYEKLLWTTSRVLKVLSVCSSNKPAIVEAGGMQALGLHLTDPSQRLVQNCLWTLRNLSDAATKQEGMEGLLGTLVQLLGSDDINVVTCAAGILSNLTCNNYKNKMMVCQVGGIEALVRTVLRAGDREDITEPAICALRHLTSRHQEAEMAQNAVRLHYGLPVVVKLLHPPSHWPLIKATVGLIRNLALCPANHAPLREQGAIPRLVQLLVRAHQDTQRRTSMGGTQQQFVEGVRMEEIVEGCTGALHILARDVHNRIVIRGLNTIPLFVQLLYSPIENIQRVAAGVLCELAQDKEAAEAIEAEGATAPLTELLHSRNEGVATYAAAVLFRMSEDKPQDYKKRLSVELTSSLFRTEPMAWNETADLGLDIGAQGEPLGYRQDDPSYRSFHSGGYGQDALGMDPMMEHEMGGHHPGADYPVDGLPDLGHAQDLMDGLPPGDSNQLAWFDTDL

T2: B-cat-Halo (UniProt P35222 1-781)
T2 construct: Expressed by transfection in HEK293 cells for the NanoBRET assay; also called beta-catenin HaloTag NanoBRET construct; not shown: HaloTag
T2 sequence (looked up): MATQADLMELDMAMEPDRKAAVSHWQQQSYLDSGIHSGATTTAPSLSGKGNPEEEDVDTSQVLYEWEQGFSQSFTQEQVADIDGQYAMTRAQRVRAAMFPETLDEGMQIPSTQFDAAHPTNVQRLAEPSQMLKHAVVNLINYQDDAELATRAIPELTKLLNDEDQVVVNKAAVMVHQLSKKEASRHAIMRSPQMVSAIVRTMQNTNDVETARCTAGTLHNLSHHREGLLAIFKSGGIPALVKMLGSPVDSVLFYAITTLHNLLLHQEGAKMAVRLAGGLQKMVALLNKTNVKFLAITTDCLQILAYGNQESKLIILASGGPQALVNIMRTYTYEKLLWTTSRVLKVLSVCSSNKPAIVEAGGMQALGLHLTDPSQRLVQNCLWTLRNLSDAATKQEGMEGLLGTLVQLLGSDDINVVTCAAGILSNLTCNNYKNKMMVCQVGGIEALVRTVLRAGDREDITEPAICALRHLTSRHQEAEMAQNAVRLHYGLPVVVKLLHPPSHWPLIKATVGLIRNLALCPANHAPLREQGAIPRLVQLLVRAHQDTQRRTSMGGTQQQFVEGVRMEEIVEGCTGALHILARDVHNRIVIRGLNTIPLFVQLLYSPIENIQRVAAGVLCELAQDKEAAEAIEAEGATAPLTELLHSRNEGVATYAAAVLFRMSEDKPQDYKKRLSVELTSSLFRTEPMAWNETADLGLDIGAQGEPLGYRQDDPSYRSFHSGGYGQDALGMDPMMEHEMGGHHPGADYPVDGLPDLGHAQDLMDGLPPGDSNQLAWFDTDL

T3: full-length beta-Catenin (Uniprot ID P35222) (Homo sapiens (Human), UniProt P35222 1-781)
T3 construct: also called bCat; B-Catenin
T3 sequence: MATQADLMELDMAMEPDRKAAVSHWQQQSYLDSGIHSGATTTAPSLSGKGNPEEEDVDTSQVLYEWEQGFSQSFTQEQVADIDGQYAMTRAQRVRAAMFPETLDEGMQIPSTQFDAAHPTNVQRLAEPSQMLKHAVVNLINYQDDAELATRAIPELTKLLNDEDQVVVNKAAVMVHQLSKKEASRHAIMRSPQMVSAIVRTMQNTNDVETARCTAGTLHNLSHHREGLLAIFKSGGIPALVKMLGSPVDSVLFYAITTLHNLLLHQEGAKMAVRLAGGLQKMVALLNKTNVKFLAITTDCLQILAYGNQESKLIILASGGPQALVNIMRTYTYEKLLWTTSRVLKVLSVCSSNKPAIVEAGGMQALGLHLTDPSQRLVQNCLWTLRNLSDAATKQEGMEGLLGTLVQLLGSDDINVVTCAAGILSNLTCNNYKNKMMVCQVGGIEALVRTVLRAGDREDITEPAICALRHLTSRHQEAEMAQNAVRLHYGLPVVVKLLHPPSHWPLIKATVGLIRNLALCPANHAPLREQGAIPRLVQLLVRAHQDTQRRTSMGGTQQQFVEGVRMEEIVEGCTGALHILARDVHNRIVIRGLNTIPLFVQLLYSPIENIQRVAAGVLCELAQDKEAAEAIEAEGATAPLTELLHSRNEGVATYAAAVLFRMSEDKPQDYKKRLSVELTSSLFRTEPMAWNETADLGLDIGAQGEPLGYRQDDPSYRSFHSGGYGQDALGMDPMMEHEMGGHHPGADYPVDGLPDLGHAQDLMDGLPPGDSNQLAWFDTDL


Columns and labels:
[1] = biological target: T1, full-length beta-Catenin (Uniprot ID …); experiment: fluorescence polarization competition; full-length beta-catenin + 5FAM-TCF4(10-53) probe
Description: (§1) The plate was incubated protected from light for 60 minutes at 20° C. prior to read. Reads were performed on a CLARIOstar plate reader (BMG Labtech) in duplicate, and data were fitted to a 1:1 binding model with hill slope using an in-house script. All provided concentrations are final concentrations.

[2] = biological target: T2, B-cat-Halo; experiment: NanoBRET Abs IC50 in HEK293 cells; Bcat-Halo, TCF4-Luc as competitor
[3] = biological target: T3, full-length beta-Catenin (Uniprot ID …); experiment: competition fluorescence polarization; full-length beta-catenin, 5FAM-TCF4(10-53) probe as competitor
Description: as §1

Row | Binder | EC50 [1] [µM] | IC50 [2] [µM] | IC50 [3] [µM]
1 | XDLXDDAAFNXFXQ (not fully specified; N-terminal Ac; C-terminal NH2; non-natural PL3 (1), B5 (4), S8 (11), BztA (13); stapled PL3-B5 and B5-S8 by olefin metathesis, Stapled peptide composition; also called Ac-PL3-Asp-Leu-B5-Asp-Asp-Ala-Ala-Phe-Asn-S8-Phe-BztA-Gln-NH2) [I-563] |  | 15.7 | 0.019
2 | Ac-[αAllylPro]DL[B5(5)]DDAAFN[S8]F[Bta]H-NH2 (staple 1-4, 4-11, Stapled peptide composition; also called Ac-PL3-Asp-Leu-B5-Asp-Asp-Ala-Ala-Phe-Asn-S8-Phe-BztA-His-NH2) [I-564] |  | > 20 | 0.036
3 | XDVXDDAAFNXFXQ (not fully specified; N-terminal Ac; C-terminal NH2; non-natural PL3 (1), B5 (4), S8 (11), BztA (13); stapled PL3-B5 and B5-S8 by olefin metathesis, Stapled peptide composition; also called Ac-PL3-Asp-Val-B5-Asp-Asp-Ala-Ala-Phe-Asn-S8-Phe-BztA-Gln-NH2) [I-566] |  |  | 0.076

Other lines, results leading:

Row | EC50 [1] [µM] | IC50 [2] [µM] | IC50 [3] [µM] | Binder
4 | 10 |  |  | Ac-[αAllylPro]DA[B5(10)]NTAAFL[PyrS2]F[Bta]Q-NH2 (staple 1-4, 4-11; not fully specified; printed as Ac-PL3-Asp-Ala-B5-Asn-Thr-Ala-Ala-Phe-Leu-PyrS2-Phe-BztA-Gln-NH2) [I-1295]
5 |  |  | 0.037 | XDVXDDAAFNXFXQ (not fully specified; N-terminal Ac; C-terminal NH2; non-natural PL3 (1), B5 (4), S8 (11), BztA (13); stapled PL3-B5 and B5-S8 by olefin metathesis, Stapled peptide composition; also called Ac-PL3-Asp-Val-B5-Asp-Asp-Ala-Ala-Phe-Asn-S8-Phe-BztA-Gln-NH2) [I-567]
6 |  | 11.1 |  | XDLXDEAAFNXFXQ (not fully specified; N-terminal Ac; C-terminal NH2; non-natural PL3 (1), B5 (4), S8 (11), BztA (13); stapled PL3-B5 and B5-S8 by olefin metathesis, Stapled peptide composition; also called Ac-PL3-Asp-Leu-B5-Asp-Glu-Ala-Ala-Phe-Asn-S8-Phe-BztA-Gln-NH2) [I-576]
7 |  | 10.4 |  | Ac-[αAllylPro]DL[B5(21)]DEAAFN[S8]F[Bta]Q-NH2 (staple 1-4, 4-11; not fully specified, Stapled peptide composition; also called Ac-PL3-Asp-Leu-B5-Asp-Glu-Ala-Ala-Phe-Asn-S8-Phe-BztA-Gln-NH2) [I-577]
